For 5 molecules, Kd results are on record in publication PMC7878818 (2021).

A word on the Kd: it is the equilibrium constant for the complex coming apart. Lower therefore signals a tighter complex.

Holding throughout (experiment): ITC
Assay [1] has as its target Spindlin1/C11orf84 complex (human, UniProt Q9Y657 50-262; Q9BUA3 1-381).
Assay [2] has as its target Spindlin1 Y91A/C11orf84 complex (human, UniProt Q9Y657 50-262; Q9BUA3 1-381, Y91A).
The target of assay [3] is Spindlin1 W62A/C11orf84 complex (human, UniProt Q9Y657 50-262; Q9BUA3 1-381, W62A).
Sequence of Spindlin1 W62A/C11orf84 complex (Q9Y657 50-262 W62A, chain 1 of 2): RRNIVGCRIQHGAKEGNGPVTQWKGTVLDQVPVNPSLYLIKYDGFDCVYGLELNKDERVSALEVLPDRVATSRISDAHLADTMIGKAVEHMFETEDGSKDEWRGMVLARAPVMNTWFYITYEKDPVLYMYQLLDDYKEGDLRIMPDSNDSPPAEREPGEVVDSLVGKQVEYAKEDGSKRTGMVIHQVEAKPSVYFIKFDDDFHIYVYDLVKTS
Sequence of Spindlin1 W62A/C11orf84 complex (Q9BUA3 whole entry, chain 2 of 2): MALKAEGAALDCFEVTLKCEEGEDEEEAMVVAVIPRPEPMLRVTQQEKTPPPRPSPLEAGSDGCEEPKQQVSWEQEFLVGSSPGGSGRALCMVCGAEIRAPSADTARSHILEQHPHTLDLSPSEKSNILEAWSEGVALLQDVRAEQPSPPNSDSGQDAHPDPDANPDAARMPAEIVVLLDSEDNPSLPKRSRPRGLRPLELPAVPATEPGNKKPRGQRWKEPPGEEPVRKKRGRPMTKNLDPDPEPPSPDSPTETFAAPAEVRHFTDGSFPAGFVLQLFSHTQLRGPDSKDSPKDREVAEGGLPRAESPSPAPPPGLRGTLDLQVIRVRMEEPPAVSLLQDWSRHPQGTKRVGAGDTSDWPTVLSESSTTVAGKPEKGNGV
Assay [4] deals with Spindlin1 W72A/C11orf84 complex (human, UniProt Q9Y657 50-262; Q9BUA3 1-381, W72A).
Sequence of Spindlin1 W72A/C11orf84 complex (Q9Y657 50-262 W72A, chain 1 of 2): as the sequence (Q9Y657 50-262 W62A, chain 1 of 2) above, with A13W, W23A counted along it
Sequence of Spindlin1 W72A/C11orf84 complex (Q9BUA3 whole entry, chain 2 of 2): as the sequence (Q9BUA3 whole entry, chain 2 of 2) above
For assay [5], the target named is Spindlin1 D173A/C11orf84 complex (human, UniProt Q9Y657 50-262; Q9BUA3 1-381, D173A).
Sequence of Spindlin1 D173A/C11orf84 complex (Q9Y657 50-262 D173A, chain 1 of 2): as the sequence (Q9Y657 50-262 W62A, chain 1 of 2) above, with A13W, D124A counted along it
Sequence of Spindlin1 D173A/C11orf84 complex (Q9BUA3 219-305, chain 2 of 2): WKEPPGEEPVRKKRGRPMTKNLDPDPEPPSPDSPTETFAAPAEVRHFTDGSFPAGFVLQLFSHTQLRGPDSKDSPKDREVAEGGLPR
The target in assay [6] is Spindlin1 F141A/C11orf84 complex (human, UniProt Q9Y657 50-262; Q9BUA3 1-381, F141A).
Sequence of Spindlin1 F141A/C11orf84 complex (Q9Y657 50-262 F141A, chain 1 of 2): as the sequence (Q9Y657 50-262 W62A, chain 1 of 2) above, with A13W, F92A counted along it
Sequence of Spindlin1 F141A/C11orf84 complex (Q9BUA3 whole entry, chain 2 of 2): as the sequence (Q9BUA3 whole entry, chain 2 of 2) above
Assay [7] deals with Spindlin1 W62A/W72A/C11orf84 complex (human, UniProt Q9Y657 50-262; Q9BUA3 1-381, W62A | W72A).
Sequence of Spindlin1 W62A/W72A/C11orf84 complex (Q9Y657 50-262 W62A/W72A, chain 1 of 2): as the sequence (Q9Y657 50-262 W62A, chain 1 of 2) above, with W23A counted along it
Sequence of Spindlin1 W62A/W72A/C11orf84 complex (Q9BUA3 whole entry, chain 2 of 2): as the sequence (Q9BUA3 whole entry, chain 2 of 2) above
For assay [8], the target named is Spindlin1 Y98A/C11orf84 complex (human, UniProt Q9Y657 50-262; Q9BUA3 1-381, Y98A).
Sequence of Spindlin1 Y98A/C11orf84 complex (Q9Y657 50-262 Y98A, chain 1 of 2): as the sequence (Q9Y657 50-262 W62A, chain 1 of 2) above, with A13W, Y49A counted along it
Sequence of Spindlin1 Y98A/C11orf84 complex (Q9BUA3 whole entry, chain 2 of 2): as the sequence (Q9BUA3 whole entry, chain 2 of 2) above

Ends that are not written are not given here. Me3 = trimethyl group on lysine (trimethyl-lysine); Me2 = dimethyl group on lysine (dimethyl-lysine)

Sequence of Spindlin1/C11orf84 complex (Q9Y657 50-262, chain 1 of 2): as the sequence (Q9Y657 50-262 W62A, chain 1 of 2) above, with A13W counted along it
Sequence of Spindlin1/C11orf84 complex (Q9BUA3 219-305, chain 2 of 2): as the sequence (Q9BUA3 219-305, chain 2 of 2) above
Sequence of Spindlin1 Y91A/C11orf84 complex (Q9Y657 50-262 Y91A, chain 1 of 2): as the sequence (Q9Y657 50-262 W62A, chain 1 of 2) above, with A13W, Y42A counted along it
Sequence of Spindlin1 Y91A/C11orf84 complex (Q9BUA3 whole entry, chain 2 of 2): as the sequence (Q9BUA3 whole entry, chain 2 of 2) above

On to ARTK(Me3)QTARKSTG [H3K4me3 peptide], for which the Kd in assay [1] is 213 nM.

On to ARTK(Me3)QTARK(Me3)STG [H3K4me3K9me3 peptide], for which the Kd was 59 nM in assay [2]; 71 nM in assay [3]; 77 nM in assay [4]; 57 nM in assay [5]; 869 nM in assay [6]; 199 nM in assay [7]. This molecule registered a Kd in assay [8] of 80 nM.

Regarding ARTK(Me3)QTARK(Me2)STG [H3K4me3K9me2 peptide], in assay [1], the Kd came to 42 nM.

Take ARTKQTARKSTG (K9me3) [H3K9me3 peptide]: binding in assay [1] was characterised by a dissociation constant (Kd) of 2880 nM.

Consider ARTK(Me3)QTAR(asymmetric Me2)KSTG [H3K4me3R8me2a peptide], for which, in assay [1], the affinity, expressed as Kd, was 82 nM.
